Experimental findings from IntAct's records for PubMed 9845372 are described below.

First the molecules themselves.
B1: Double-strand break repair protein MRE11 (Saccharomyces cerevisiae), P32829 (parent)
chain: MDYPDPDTIRILITTDNHVGYNENDPITGDDSWKTFHEVMMLAKNNNVDMVVQSGDLFHVNKPSKKSLYQVLKTLRLCCMGDKPCELELLSDPSQVFHYDEFTNVNYEDPNFNISIPVFGISGNHDDASGDSLLCPMDILHATGLINHFGKVIESDKIKVVPLLFQKGSTKLALYGLAAVRDERLFRTFKDGGVTFEVPTMREGEWFNLMCVHQNHTGHTNTAFLPEQFLPDFLDMVIWGHEHECIPNLVHNPIKNFDVLQPGSSVATSLCEAEAQPKYVFILDIKYGEAPKMTPIPLETIRTFKMKSISLQDVPHLRPHDKDATSKYLIEQVEEMIRDANEETKQKLADDGEGDMVAELPKPLIRLRVDYSAPSNTQSPIDYQVENPRRFSNRFVGRVANGNNVVQFYKKRSPVTRSKKSGINGTSISDRDVEKLFSESGGELEVQTLVNDLLNKMQLSLLPEVGLNEAVKKFVDKDEKTALKEFISHEISNEVGILSTNEEFLRTDDAEEMKALIKQVKRANSVRPTPPKENDETNFAFNGNGLDSFRSSNREVRTGSPDITQSHVDNESRITHISQAESSKPTSKPKRVRTATKKKIPAFSDSTVISDAENELGDNNDAQDDVDIDENDIIMVSTDEEDASYGLLNGRKTKTKTRPAASTKTASRRGKGRASRTPKTDILGSLLAKKRK
partner: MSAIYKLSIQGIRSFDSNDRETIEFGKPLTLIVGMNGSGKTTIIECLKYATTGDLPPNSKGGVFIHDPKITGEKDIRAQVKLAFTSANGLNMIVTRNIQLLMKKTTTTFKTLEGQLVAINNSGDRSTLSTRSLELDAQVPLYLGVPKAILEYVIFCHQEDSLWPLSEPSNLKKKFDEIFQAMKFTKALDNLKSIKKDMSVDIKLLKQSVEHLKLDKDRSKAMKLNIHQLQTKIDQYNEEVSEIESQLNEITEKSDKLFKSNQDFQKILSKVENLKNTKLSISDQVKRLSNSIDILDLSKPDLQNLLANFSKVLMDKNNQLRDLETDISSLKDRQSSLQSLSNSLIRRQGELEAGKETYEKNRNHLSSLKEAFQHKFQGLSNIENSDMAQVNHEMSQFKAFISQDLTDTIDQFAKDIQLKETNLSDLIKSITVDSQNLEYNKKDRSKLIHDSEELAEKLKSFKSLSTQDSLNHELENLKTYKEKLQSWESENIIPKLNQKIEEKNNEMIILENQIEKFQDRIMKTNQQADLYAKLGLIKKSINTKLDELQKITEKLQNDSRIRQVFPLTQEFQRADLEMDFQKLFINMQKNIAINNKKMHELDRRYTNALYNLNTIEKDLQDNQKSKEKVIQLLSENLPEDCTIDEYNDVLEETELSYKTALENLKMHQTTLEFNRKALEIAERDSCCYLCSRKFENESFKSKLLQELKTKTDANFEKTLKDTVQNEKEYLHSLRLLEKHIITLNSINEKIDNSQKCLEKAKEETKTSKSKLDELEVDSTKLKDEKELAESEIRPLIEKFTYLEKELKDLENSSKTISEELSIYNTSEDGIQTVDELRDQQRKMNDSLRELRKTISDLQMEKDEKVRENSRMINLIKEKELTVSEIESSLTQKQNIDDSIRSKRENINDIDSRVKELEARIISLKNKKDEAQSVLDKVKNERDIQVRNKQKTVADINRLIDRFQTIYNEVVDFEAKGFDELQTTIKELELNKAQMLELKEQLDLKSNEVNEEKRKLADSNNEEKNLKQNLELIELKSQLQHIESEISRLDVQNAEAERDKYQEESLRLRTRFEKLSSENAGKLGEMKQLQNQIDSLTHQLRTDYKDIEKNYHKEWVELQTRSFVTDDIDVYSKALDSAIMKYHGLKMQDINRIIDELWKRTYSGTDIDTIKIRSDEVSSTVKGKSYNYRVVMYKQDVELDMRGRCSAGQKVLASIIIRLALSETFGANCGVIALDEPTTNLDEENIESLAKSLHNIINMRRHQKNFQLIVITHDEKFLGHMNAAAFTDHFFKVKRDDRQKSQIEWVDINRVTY

In the assay the parent is B1. The note with it: with rad50_yeast RAD50, P12753.
H213Y;L225I: the “effect of a mutation on the interaction” value is on record as “disrupting interaction”.
